Reference: US20180369334A1 (Stanford University, published 2018)

B1: scVEGF-mE7I (SEQ ID NO: 75), construct with the original linker (ligand)
chain: EVVKAMDVYQRSYCHPIETLVDILQEYPDEIGYIFKPSCVPLMRCGGCCNGAGLECVPTEESNITMQIMRIKPHRGQHIGEMSFLQHNKCECRPKKDGGGGSGGGGSGGGGSGGGGSEVVRFMDVYQRSYCHPIETLVDIFQEYPNEIEYAFKPSCVPLMRCGGCCNNEGLECVPTEESNITMQIMRPSVRRGDSPASHIGEMSFLQHNKCECRPKKD
B2: scVEGF-mE7I construct containing the L3A linker (ligand)
chain: B1 chain
B3: scVEGFMUT-E (mE, SEQ ID NO.: 55) (ligand)
chain: EVVKAMDVYQRSYCHPIETLVDILQEYPDEIGYIFKPSCVPLMRCGGCCNGAGLECVPTEESNITMQIMRIKPHRGQHIGEMSFLQHNKCECRPKKDGSTSGSGKSSEGKGEVVRFMDVYQRSYCHPIETLVDIFQEYPNEIEYAFKPSCVPLMRCGGCCNNEGLECVPTEESNITMQIMRAKPHQGQHIGEMSFLQHNKCECRPKKD
notes: Chain 1: F36L, E44G, D63G, Q87R; also called scVEGFmE

Experiments:
[1] = target: human endothelial cells (HUVECs); test: cell binding assay on human endothelial cells
[2] = target: human endothelial cells (HUVECs); test: binding to HUVEC; the column prints only 'HUVEC (nM)'
[3] = target: T1, VEGFR2 (on PAE-VEGFR2 cells) (UniProt P35968 20-1356, limits assumed); test: binding to PAE-VEGFR2 cells; the column prints only 'VEGFR2 (nM)'
T1 construct: whole, on cells
T1 sequence (P35968 20-1356 limits assumed): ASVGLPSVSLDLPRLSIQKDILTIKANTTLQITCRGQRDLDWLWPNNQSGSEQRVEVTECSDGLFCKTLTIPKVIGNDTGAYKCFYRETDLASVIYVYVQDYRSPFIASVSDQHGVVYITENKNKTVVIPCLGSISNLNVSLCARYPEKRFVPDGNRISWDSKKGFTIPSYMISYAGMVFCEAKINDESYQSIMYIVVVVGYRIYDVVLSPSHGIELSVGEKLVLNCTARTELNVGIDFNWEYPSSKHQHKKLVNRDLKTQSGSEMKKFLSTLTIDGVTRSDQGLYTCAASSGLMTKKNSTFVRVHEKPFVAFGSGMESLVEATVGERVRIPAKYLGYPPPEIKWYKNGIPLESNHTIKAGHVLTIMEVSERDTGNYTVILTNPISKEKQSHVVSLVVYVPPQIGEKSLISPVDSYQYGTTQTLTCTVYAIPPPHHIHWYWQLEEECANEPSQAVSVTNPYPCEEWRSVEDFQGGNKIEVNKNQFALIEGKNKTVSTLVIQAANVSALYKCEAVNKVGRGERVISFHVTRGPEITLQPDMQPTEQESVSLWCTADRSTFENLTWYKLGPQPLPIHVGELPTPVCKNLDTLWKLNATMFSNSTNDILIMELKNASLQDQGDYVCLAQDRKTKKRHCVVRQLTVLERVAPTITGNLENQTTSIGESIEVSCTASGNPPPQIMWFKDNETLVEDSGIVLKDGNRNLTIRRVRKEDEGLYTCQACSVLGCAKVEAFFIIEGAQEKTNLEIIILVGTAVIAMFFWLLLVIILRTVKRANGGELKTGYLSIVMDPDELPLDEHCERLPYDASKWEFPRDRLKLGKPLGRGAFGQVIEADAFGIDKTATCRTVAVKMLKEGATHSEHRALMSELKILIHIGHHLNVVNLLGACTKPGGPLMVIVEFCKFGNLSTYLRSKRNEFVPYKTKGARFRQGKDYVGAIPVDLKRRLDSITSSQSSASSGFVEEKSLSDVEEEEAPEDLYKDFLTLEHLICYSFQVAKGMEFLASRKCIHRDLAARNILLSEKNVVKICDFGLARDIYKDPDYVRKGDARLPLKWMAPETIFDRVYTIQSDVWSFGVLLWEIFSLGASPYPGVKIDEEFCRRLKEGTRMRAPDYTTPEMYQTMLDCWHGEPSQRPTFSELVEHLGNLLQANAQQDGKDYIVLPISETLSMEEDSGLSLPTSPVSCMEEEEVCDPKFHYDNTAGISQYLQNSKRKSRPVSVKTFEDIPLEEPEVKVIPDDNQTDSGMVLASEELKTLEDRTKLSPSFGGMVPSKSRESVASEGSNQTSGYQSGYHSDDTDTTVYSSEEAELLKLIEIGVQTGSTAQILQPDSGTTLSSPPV

[4] = target: T2, VEGFR1 (on PAE-VEGFR1 cells) (UniProt P17948 27-1338, limits assumed); test: binding to PAE-VEGFR1 cells; the column prints only 'VEGFR1 (nM)', the text calls it an affinity
T2 construct: whole, on cells
T2 sequence (P17948 27-1338 limits assumed): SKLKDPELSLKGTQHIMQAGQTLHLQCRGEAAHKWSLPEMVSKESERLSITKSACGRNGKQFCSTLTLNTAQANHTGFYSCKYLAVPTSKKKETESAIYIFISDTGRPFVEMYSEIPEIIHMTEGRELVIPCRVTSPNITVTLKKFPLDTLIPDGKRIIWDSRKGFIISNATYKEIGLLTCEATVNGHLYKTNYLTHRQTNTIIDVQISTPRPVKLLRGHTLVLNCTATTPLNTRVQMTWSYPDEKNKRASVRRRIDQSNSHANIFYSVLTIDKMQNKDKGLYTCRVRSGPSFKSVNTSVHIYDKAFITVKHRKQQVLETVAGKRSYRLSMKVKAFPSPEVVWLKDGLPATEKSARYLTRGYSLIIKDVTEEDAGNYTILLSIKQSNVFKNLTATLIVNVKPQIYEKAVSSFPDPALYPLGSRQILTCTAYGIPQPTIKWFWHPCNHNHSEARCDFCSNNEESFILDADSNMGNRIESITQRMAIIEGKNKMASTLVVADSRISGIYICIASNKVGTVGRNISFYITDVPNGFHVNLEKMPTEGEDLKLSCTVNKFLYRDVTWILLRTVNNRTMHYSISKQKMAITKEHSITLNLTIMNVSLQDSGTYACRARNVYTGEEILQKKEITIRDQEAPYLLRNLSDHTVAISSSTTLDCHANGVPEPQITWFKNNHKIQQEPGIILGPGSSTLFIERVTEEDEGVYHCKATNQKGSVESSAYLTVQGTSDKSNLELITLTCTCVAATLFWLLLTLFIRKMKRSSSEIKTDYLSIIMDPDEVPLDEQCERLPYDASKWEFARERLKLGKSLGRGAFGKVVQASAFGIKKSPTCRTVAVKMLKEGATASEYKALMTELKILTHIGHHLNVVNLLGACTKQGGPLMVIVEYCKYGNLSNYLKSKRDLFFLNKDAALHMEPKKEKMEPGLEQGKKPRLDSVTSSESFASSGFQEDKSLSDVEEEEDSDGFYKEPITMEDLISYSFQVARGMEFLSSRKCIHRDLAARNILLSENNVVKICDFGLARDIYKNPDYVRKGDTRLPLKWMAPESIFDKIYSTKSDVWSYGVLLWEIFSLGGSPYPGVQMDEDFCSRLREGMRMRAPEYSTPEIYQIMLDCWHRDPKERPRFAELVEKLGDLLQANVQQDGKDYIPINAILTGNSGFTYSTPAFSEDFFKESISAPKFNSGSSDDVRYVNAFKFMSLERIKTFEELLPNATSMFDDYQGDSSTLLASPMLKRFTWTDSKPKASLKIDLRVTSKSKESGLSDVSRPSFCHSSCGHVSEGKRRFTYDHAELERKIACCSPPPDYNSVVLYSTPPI

Row | Binder | Kd [1] [nM] | fold improvement of KD against the construct with the original linker [1] [fold] | Kd [2] [nM] | Kd [3] [nM] | Kd [4] [nM]
1 | B1 | 0.32 |  |  |  | 
2 | B2 | 0.16 | 2 |  |  | 
3 | B3 |  |  | 0.4 | 0.5 | 0.55
